One data set addresses T1, GcL (Parageobacillus caldoxylosilyticus, UniProt A0A023DFE8, A156S).
T1 construct: gene GCA01S_030_00190; expressed in E. coli BL21(DE3)-pGro7/GroEL with CoCl2; bimetallic Fe/Co centre; dimer
Description: 4-nitrophenolate release at […] nm. Format: biochemical. Conditions: 50 mM HEPES pH 8.0 (methods; table note pH 8.3), 150 mM NaCl, CoCl2, 25 °C.

Substrate in data set [1]: CCCC(=O)N[C@H]1CCOC1=O
Description: purified protein. Format: biochemical, Parageobacillus caldoxylosilyticus. Conditions: pH 8.3, 25 °C, 2.5 mM bicine, 150 mM NaCl, 0.2 mM CoCl2.

Substrate in data set [2]: CCCCCC(=O)N[C@H]1CCOC1=O
Description: purified protein. The data set is classed as biochemical, Parageobacillus caldoxylosilyticus. Conditions: pH 8.3, 25 °C, 2.5 mM bicine, 150 mM NaCl, 0.2 mM CoCl2.

Substrate in data set [3]: CCCCCCCC(=O)N[C@H]1CCOC1=O
Description: purified protein. Conditions: pH 8.3, 25 °C, 2.5 mM bicine, 150 mM NaCl, 0.2 mM CoCl2. The data set is classed as biochemical, Parageobacillus caldoxylosilyticus.

Numbering of substitutions follows the chain as printed. Numbers in names are those of the source.

In article PMC11423328, “Catalytic Redundancies and Conformational Plasticity Drives Selectivity and Promiscuity in Quorum Quenching Lactonases” (JACS Au, 2024) one finds Km, kcat and kcat/Km data, which are given here for seven molecules.

By Km is commonly meant the substrate concentration at which the rate is half of its maximum. For orientation: kcat means the number of substrate molecules converted per active site and unit of time at saturation. The kcat/Km is the second-order rate constant that governs catalysis at low substrate concentration.

T1 sequence (A0A023DFE8 entry or part of it A156S): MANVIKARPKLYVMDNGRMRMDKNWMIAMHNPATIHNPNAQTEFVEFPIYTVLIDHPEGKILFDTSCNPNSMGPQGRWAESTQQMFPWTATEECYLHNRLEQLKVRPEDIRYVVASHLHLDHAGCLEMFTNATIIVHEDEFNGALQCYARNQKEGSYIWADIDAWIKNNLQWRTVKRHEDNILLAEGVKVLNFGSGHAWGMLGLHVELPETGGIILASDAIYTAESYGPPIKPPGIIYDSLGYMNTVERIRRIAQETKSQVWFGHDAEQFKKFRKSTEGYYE

With `CCOP(=O)(OCC)Oc1ccc([N+](=O)[O-])cc1` [Paraoxon, paraoxon ethyl], the Km on GcL came out at 964 ± 136 µM.

B1: GcL (Parageobacillus caldoxylosilyticus NBRC 107762; Y222F) (protein)
chain: MANVIKARPKLYVMDNGRMRMDKNWMIAMHNPATIHNPNAQTEFVEFPIYTVLIDHPEGKILFDTSCNPNSMGPQGRWAESTQQMFPWTATEECYLHNRLEQLKVRPEDIRYVVASHLHLDHAGCLEMFTNATIIVHEDEFNGALQCYARNQKEGAYIWADIDAWIKNNLQWRTVKRHEDNILLAEGVKVLNFGSGHAWGMLGLHVELPETGGIILASDAIFTAESYGPPIKPPGIIYDSLGYMNTVERIRRIAQETKSQVWFGHDAEQFKKFRKSTEGYYE
notes: expressed in E. coli BL21(DE3)-pGro7/GroEL with CoCl2; bimetallic Fe/Co centre; dimer
For the molecule B1, in “purified protein [1]”, the Km amounted to 758 ± 275 µM, the kcat worked out at 0.79 ± 0.15 s⁻¹ and the kcat/Km turned out to be 1040 ± 430 M⁻¹ s⁻¹. In the data set “purified protein [2]”, the Km was 92.7 ± 36.7 µM, the kcat is 5.01 ± 0.46 s⁻¹ and the specificity constant (kcat/Km) was 54100 ± 21900 M⁻¹ s⁻¹.

B2: GcL (Parageobacillus caldoxylosilyticus NBRC 107762; G155P) (protein)
chain: B1 chain with G155P, F222Y
notes: as for B1
For B2, in the data set “purified protein [3]”, the Km worked out at 8.22 ± 2.92 µM, the kcat is 1.44 ± 0.09 s⁻¹ and the kcat/Km was found to be 175000 ± 63000 M⁻¹ s⁻¹. Also, in the data set “purified protein [2]”, the Km amounted to 563 ± 150 µM, the kcat was 2.44 ± 0.31 s⁻¹ and the kcat/Km was found to be 4340 ± 1280 M⁻¹ s⁻¹.

B3: GcL (Parageobacillus caldoxylosilyticus NBRC 107762; D121N) (protein)
chain: B1 chain with D121N, F222Y
notes: as for B1
Turning to B3, in the data set “purified protein [1]”, the Michaelis-Menten constant (Km) was 41.0 ± 9.14 µM, the kcat stood at 1.74 ± 0.1 s⁻¹ and the kcat/Km amounted to 42500 ± 9800 M⁻¹ s⁻¹. Moreover, in “purified protein [2]”, the Km stood at 13.0 ± 6.16 µM, the kcat was 2.6 ± 0.24 s⁻¹ and the catalytic efficiency (kcat/Km) is 200000 ± 96000 M⁻¹ s⁻¹.

B4: GcL (Parageobacillus caldoxylosilyticus NBRC 107762; A156G) (protein)
chain: B1 chain with A156G, F222Y
notes: as for B1
In the case of B4, in the data set “purified protein [3]”, the Km was found to be 19.34 ± 3.28 µM, the turnover number (kcat) came out at 7.97 ± 0.33 s⁻¹ and the kcat/Km worked out at 412000 ± 72000 M⁻¹ s⁻¹.

B5: GcL (Parageobacillus caldoxylosilyticus NBRC 107762; A156S) (protein)
chain: B1 chain with A156S, F222Y
notes: as for B1
B5: in “purified protein [1]”, the Km worked out at 475 ± 103 µM, the turnover number (kcat) turned out to be 24.9 ± 2.52 s⁻¹ and the kcat/Km turned out to be 52400 ± 12500 M⁻¹ s⁻¹.

B6: GcL (Parageobacillus caldoxylosilyticus NBRC 107762; I236M) (protein)
chain: B1 chain with F222Y, I236M
notes: as for B1
For B6, in the data set “purified protein [2]”, the Michaelis constant (Km) amounted to 2.38 ± 0.68 µM, the kcat worked out at 0.95 ± 0.04 s⁻¹ and the kcat/Km stood at 399000 ± 115000 M⁻¹ s⁻¹.
